Paper PMC10515946

Key:
[1] = molecular target: 1059 SOSIP (TPA-1059 SOSIP, soluble Env trimer of the transmitted/founder HIV-1 strain 1059), purifi (HIV-1 strain 1059); experiment: cryo-EM structure
[2] = molecular target: BG505 SOSIP (soluble Env trimer of HIV-1 BG505) (HIV-1 strain BG505); experiment: cryo-EM structure

Substance | stoichiometry N [1] | stoichiometry N [2]
1059 SOSIP (TPA-1059 SOSIP, soluble Env trimer of the transmitted/founder HIV-1 strain 1059), purifi (complex) | 3 | 
BG505 SOSIP (soluble Env trimer of HIV-1 BG505) (complex) |  | 3
